Results taken from publication PMC4750872.

Target: gankyrin (UniProt O75832)
Test: ITC

Sequence of UniProt O75832 (O75832 whole entry): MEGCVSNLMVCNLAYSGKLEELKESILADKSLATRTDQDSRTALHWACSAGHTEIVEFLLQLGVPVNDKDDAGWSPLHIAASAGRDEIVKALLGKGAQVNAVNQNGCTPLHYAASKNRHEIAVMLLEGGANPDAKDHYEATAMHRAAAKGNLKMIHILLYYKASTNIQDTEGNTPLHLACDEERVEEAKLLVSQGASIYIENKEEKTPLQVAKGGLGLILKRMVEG

- dH: -29 kcal/mol
Substance: FtsH-S6 ATPase
